Reference: US5914109

Experiments:
[1] = biological target: 20-mer V3 peptide of HIVMN (American Bio-Technologies) (HIV-1 strain MN); test: Friguet ELISA method, V3 MN peptide
[2] = biological target: 20-mer V3 peptide of HIVMN (American Bio-Technologies) (HIV-1 strain MN); test: competition ELISA in solution at equilibrium (Friguet method)
[3] = biological target: gp120 of HIVMN (HIV-1 strain MN) (UniProt P05877)
[4] = biological target: recombinant gp120IIIB (baculovirus, Repligen) (HIV-1 isolate IIIB) (UniProt P04578); test: Friguet method, ligand in solution at equilibrium; rgp120 IIIB (row HXB2)
[5] = biological target: recombinant gp120 protein of HIVSF2 (produced in CHO cells) (HIV-1 isolate SF-2) (UniProt P03378); test: Friguet method, ligand in solution at equilibrium; rgp120 SF-2
[6] = biological target: 22-mer V3 peptide of HXB2 (HIV-1 HXB2 (IIIB)); test: competition ELISA in solution (Friguet method); mAb after the second cloning
[7] = biological target: recombinant gp120IIIB (baculovirus, Repligen) (HIV-1 isolate IIIB) (UniProt P04578); test: Friguet method; reference: V3IIIB peptide
[8] = biological target: 22-mer V3 peptide of HXB2 (HIV-1 HXB2 (IIIB)); test: competition ELISA in solution (Friguet method); mAb after the fourth cloning
[9] = biological target: 20-mer V3 peptide of HIVMN (American Bio-Technologies) (HIV-1 strain MN); test: Friguet method, ligand in solution at equilibrium; V3 peptide of MN
[10] = biological target: recombinant gp120 protein of HIVSF2 (produced in CHO cells) (HIV-1 isolate SF-2) (UniProt P03378); test: Friguet method; reference: V3SF-2 peptide
[11] = biological target: 22-mer V3 peptide of HXB2 (HIV-1 HXB2 (IIIB)); test: competition ELISA in solution at equilibrium (Friguet method)
[12] = biological target: 20-mer V3 peptide of HIVSF2 (HIV-1 isolate SF-2); test: as above
[13] = biological target: gp120 of HTLV-IIIB (HIV-1 isolate IIIB)
[14] = biological target: 20-mer V3 peptide of HIVSF2 (HIV-1 isolate SF-2); test: Friguet method, ligand in solution at equilibrium; V3 peptide of SF-2
[15] = biological target: gp120 of HTLV-IIIB (HIV-1 isolate IIIB); remark: listed apart in the source
[16] = biological target: gp120 of HIVMN (HIV-1 strain MN) (UniProt P05877); remark: listed apart in the source
[17] = biological target: 23-mer peptide of the gp120 V3 loop of the MN strain of HIV-1 (HIV-1 strain MN); test: ELISA on V3 peptide coated plates, mAb at 10 µg/ml
[18] = biological target: V3-NY5 peptide (HIV-1 isolate NY5); test: ELISA on V3 peptide coated plates, mAb at 10 µg/ml
[19] = biological target: V3-WM52 peptide (HIV-1 isolate WM52); test: ELISA on V3 peptide coated plates, mAb at 10 µg/ml
[20] = biological target: V3-SC peptide (HIV-1 isolate SC); test: ELISA on V3 peptide coated plates, mAb at 10 µg/ml
[21] = biological target: 22-mer V3 peptide of HXB2 (HIV-1 HXB2 (IIIB)); test: ELISA on V3 peptide coated plates, mAb at 10 µg/ml
[22] = biological target: V3-RF peptide (HIV-1 isolate RF); test: ELISA on V3 peptide coated plates, mAb at 10 µg/ml
[23] = biological target: 20-mer V3 peptide of HIVSF2 (HIV-1 isolate SF-2); test: ELISA on V3 peptide coated plates, mAb at 10 µg/ml
[24] = biological target: V3-CDC4 peptide (HIV-1 isolate CDC4); test: ELISA on V3 peptide coated plates, mAb at 10 µg/ml
[25] = biological target: 22-mer V3 peptide of HXB2 (HIV-1 HXB2 (IIIB)); test: Friguet method, ligand in solution at equilibrium; V3 peptide of HXB2
[26] = biological target: gp120 of HIV-1 isolate AL-1 (HIV-1 isolate AL-1)
[27] = biological target: gp120 of HTLV-IIIB (HIV-1 isolate IIIB); remark: listed apart in the source
[28] = biological target: gp120 of HIV-1 isolate RF (HIV-1 isolate RF) (UniProt P04579)
[29] = biological target: gp120 of HIV-1 isolate WMJ-2 (HIV-1 isolate WMJ-2)
[30] = biological target: gp120 of HIVMN (HIV-1 strain MN) (UniProt P05877); remark: listed apart in the source
[31] = biological target: gp120 of HIV-1 isolate SF-2 (virus) (HIV-1 isolate SF-2) (UniProt P03378)
[32] = biological target: 20-mer V3 peptide of HIVSF2 (HIV-1 isolate SF-2); test: competition ELISA in solution (Friguet method); reference: the MN peptide

Substance	Kd [1] [µM]	Kd [2] [µM]	50% neutralization, CEM-SS syncytium-forming assay, IgG concentration [3] [µg/mL]	90% neutralization, CEM-SS syncytium-forming assay, IgG concentration [3] [µg/mL]	Kd [11] [µM]	Kd [12] [µM]	minimum antigen concentration giving positive results (µg/ml of V3 peptide used to coat) [17]	minimum antigen concentration giving positive results (µg/ml of V3 peptide used to coat) [18]	minimum antigen concentration giving positive results (µg/ml of V3 peptide used to coat) [19]	minimum antigen concentration giving positive results (µg/ml of V3 peptide used to coat) [20]	minimum antigen concentration giving positive results (µg/ml of V3 peptide used to coat) [23]	minimum antigen concentration giving positive results (µg/ml of V3 peptide used to coat) [24]	further results
human mAb 412-D (antibody)	9.1	9.1	4.69	> 10									
human mAb 447-D (antibody)	0.56	0.56	0.05	0.92	24	0.9	0.01	0.1	0.2	0.01	0.01	0.1	Kd [4]: 3.9 µM; Kd [5]: 0.01 µM; Kd [6]: 64 µM; fold stronger binding than to the V3IIIB peptide [7]: 6 fold; Kd [8]: 16 µM; Kd [9]: 0.56 µM; fold stronger binding than to the V3SF-2 peptide [10]: 90 fold; 50% neutralization, CEM-SS syncytium-forming assay, IgG concentration [13]: 1.8 µg/mL; 90% neutralization, CEM-SS syncytium-forming assay, IgG concentration [13]: > 10 µg/mL; Kd [14]: 0.9 µM; neutralization dose 50%, according to Nara et al. [15]: 1.8 µg/mL; percent neutralization at the maximum concentration of 10 µg/ml [15]: 71%; neutralization dose 50%, according to Nara et al. [16]: 0.052 µg/mL; neutralization dose 90%, according to Nara et al. [16]: 0.9 µg/mL; minimum antigen concentration giving positive results (µg/ml of V3 peptide used to coat) [21]: 0.2; minimum antigen concentration giving positive results (µg/ml of V3 peptide used to coat) [22]: 0.4; Kd [25]: 24 µM
human mAb 537-D (antibody)	1.3	1.3	2.69	> 10	> 100	8.5	0.6	0.8	2	1	1	1	neutralization endpoint, MT-4 cell killing assay [26]: 3.13 µg/mL; neutralization endpoint, MT-4 cell killing assay [27]: > 50 µg/mL; neutralization endpoint, MT-4 cell killing assay [28]: > 50 µg/mL; neutralization endpoint, MT-4 cell killing assay [29]: > 50 µg/mL; neutralization endpoint, MT-4 cell killing assay [30]: 6.25 µg/mL; neutralization endpoint, MT-4 cell killing assay [31]: > 5 µg/mL; fold difference of Kd between the two V3 peptides (MN and SF-2) [32]: 7 fold
